# Measurements: article PMC8971729
# What was measured:
# [1] = target: CAR on CHO-CAR cells (UniProt P78310); test: flow cytometry on cells; CHO-CAR cells with serial dilutions of knob protein (0.0001-100 ug/10^5 cells) for 1 h on ice, washed, then stained for CAR with anti-CAR (RmcB) and a labelled secondary antibody; IC50 by non-linear regression; apparent
# [2] = target: Human desmoglein-2 Fc chimera protein (DSG2) (human) (UniProt Q14126); test: SPR; BIAcore 3000; DSG2-Fc, CAR-Fc and CD46-His (approximately 500 RU) coupled to a CM5 chip; knob protein injected (178 uM, 5x 1:3 dilutions; single-cycle kinetics from 200 uM); 30 uL/min, PBS, 25 °C; equilibrium KD assuming 1:1 Langmuir binding
# [3] = target: human CD46 protein (His tag) (human) (UniProt P15529); test: as above
# [4] = target: human CXADR Fc chimera protein (CAR) (human) (UniProt P78310); test: as above
# Chain of human CXADR Fc chimera protein (CAR) (human) (P78310 20-237, change not shown): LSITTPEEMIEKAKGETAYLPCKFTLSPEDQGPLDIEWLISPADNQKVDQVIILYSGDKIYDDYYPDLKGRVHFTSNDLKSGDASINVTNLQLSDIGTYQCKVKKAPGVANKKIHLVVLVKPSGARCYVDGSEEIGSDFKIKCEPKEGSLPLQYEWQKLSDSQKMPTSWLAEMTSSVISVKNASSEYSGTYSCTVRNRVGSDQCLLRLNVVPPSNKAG
# Chain of CAR on CHO-CAR cells (P78310 20-365): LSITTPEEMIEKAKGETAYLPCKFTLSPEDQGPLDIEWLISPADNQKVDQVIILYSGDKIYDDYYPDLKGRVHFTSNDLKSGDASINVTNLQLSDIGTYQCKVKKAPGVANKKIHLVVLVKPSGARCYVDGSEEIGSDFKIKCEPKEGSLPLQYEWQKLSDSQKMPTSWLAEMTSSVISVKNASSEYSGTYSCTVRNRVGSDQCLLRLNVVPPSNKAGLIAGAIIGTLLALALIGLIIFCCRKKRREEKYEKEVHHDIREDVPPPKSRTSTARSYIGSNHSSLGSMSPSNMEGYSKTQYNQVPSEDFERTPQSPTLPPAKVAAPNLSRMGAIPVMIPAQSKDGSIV
# Chain of Human desmoglein-2 Fc chimera protein (DSG2) (human) (Q14126 50-609, change not shown): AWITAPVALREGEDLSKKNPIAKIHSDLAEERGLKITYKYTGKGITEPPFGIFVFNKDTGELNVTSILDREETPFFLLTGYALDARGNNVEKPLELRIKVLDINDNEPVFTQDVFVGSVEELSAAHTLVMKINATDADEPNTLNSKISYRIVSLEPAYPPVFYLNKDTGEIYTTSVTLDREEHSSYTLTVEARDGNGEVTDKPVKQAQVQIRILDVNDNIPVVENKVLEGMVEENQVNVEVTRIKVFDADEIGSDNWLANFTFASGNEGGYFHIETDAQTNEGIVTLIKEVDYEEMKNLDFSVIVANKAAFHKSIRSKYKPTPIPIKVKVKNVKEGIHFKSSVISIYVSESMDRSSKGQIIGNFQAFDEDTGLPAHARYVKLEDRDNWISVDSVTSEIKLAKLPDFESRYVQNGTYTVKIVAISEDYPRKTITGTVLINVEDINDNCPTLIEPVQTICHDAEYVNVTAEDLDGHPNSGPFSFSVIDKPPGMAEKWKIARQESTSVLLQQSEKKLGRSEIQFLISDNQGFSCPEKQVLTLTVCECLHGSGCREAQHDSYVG
# Chain of human CD46 protein (His tag) (human) (P15529 35-343): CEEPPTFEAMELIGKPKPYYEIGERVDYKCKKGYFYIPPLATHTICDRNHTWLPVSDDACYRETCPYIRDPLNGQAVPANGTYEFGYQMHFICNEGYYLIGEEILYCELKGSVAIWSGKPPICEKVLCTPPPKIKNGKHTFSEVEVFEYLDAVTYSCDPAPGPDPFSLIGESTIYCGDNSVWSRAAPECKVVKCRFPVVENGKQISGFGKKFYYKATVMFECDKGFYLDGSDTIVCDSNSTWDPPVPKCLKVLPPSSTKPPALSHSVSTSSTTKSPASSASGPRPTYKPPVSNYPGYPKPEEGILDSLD
substance,measurement,setting,value
HAdV-D10 fiber knob protein (domain or fragment),fold lower apparent affinity than HAdV-C5K (by IC50),[1],16.5 fold
same,Kd,[2],125 µM
same,Kd,[3],20 µM
same,Kd,[4],0.44 µM
